In US20220204611A1 (Amgen, published 2022):

What was measured:
human TREM2 [1] = molecular target: T1, human TREM2 (human, UniProt Q9NZC2 19-174, limits assumed); assay: yeast-displayed Fab FACS, 1st screen 110 nM
T1 sequence: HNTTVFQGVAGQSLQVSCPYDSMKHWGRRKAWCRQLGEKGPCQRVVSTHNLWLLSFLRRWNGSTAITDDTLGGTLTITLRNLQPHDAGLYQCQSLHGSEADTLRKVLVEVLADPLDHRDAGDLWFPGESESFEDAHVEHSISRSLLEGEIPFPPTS

human TREM2 [2] = molecular target: T1, human TREM2; assay: yeast-displayed Fab FACS, 2nd screen 100 nM

B1: V6 (Fab, V domains shown)
VH: EVQLVQSGAEVKKPGESLKISCKGSGYSFTSMWIAWVRQMPGKGLEWMGIIYPGDSDTRYSPSFQGQVTISADKSISTAYLQWSSLKASDTAMYFCARQRTFYYDSSDYFDYWGQGTLVTVSS
VL: DIQMTQSPSSVSASVGDRVTITCRASQGISSWLAWYQQKPGKAPKLLIYAASSLQNGVPSRFSGSGSGTDFTLTISSLQPEDFATYFCQQADSFPRTFGQGTKLEIK
B1 was tested, and the “binding signal fold over 6E7 parental” value (human TREM2 [1]) was 0.2 fold and the “binding signal fold over 6E7 parental” value (human TREM2 [2]) was 0.56 fold.

B2: V7 (Fab, V domains shown)
VH: EVQLVQSGAEVKKPGESLKISCKGSGYSFTSEWIAWVRQMPGKGLEWMGIIYPGDSDTRYSPSFQGQVTISADKSISTAYLQWSSLKASDTAMYFCARQRTFYYDSSDYFDYWGQGTLVTVSS
VL: DIQMTQSPSSVSASVGDRVTITCRASQGISSWLAWYQQKPGKAPKLLIYAASSLQNGVPSRFSGSGSGTDFTLTISSLQPEDFATYFCQQADSFPRTFGQGTKLEIK
B2 was tested, and the “binding signal fold over 6E7 parental” value (human TREM2 [1]) was 0.11 fold and the “binding signal fold over 6E7 parental” value (human TREM2 [2]) was 0.32 fold.

B3: V8 (Fab, V domains shown)
VH: EVQLVQSGAEVKKPGESLKISCKGSGYSFTSYWIAWVRQMPGKGLEWMGIIYPGDSDTKYSPSFQGQVTISADKSISTAYLQWSSLKASDTAMYFCARQRTFYYDSSDYFDYWGQGTLVTVSS
VL: DIQMTQSPSSVSASVGDRVTITCRASQGISSWLAWYQQKPGKAPKLLIYAASSLQNGVPSRFSGSGSGTDFTLTISSLQPEDFATYFCQQADSFPRTFGQGTKLEIK
B3 was tested, and the “binding signal fold over 6E7 parental” value (human TREM2 [1]) was 0.28 fold and the “binding signal fold over 6E7 parental” value (human TREM2 [2]) was 0.77 fold.

B4: V9 (Fab, V domains shown)
VH: EVQLVQSGAEVKKPGESLKISCKGSGYSFTSYWIAWVRQMPGKGLEWMGIIYPGDSDTRYSPSFQGQVTISADKSISTAYLQWSSLKASDTAMYFCARQRGFYYDSSDYFDYWGQGTLVTVSS
VL: DIQMTQSPSSVSASVGDRVTITCRASQGISSWLAWYQQKPGKAPKLLIYAASSLQNGVPSRFSGSGSGTDFTLTISSLQPEDFATYFCQQADSFPRTFGQGTKLEIK
For B4, the “binding signal fold over 6E7 parental” value (human TREM2 [1]) was 0.67 fold and the “binding signal fold over 6E7 parental” value (human TREM2 [2]) was 0.54 fold.

B5: V10 (Fab, V domains shown)
VH: EVQLVQSGAEVKKPGESLKISCKGSGYSFTSYWIAWVRQMPGKGLEWMGIIYPGDSDTRYSPSFQGQVTISADKSISTAYLQWSSLKASDTAMYFCARQRTFYYDSSDYFDYWGQGTLVTVSS
VL: DIQMTQSPSSVSASVGDRVTITCRASQGISSWLAWYQQKPGKAPKLLIYSASSLQNGVPSRFSGSGSGTDFTLTISSLQPEDFATYFCQQADSFPRTFGQGTKLEIK
With B5 the “binding signal fold over 6E7 parental” value (human TREM2 [1]) was 0.76 fold and the “binding signal fold over 6E7 parental” value (human TREM2 [2]) was 0.7 fold.

B6: V11 (Fab, V domains shown)
VH: EVQLVQSGAEVKKPGESLKISCKGSGYSFTSYWIAWVRQMPGKGLEWMGIIYPGDSDTRYSPSFQGQVTISADKSISTAYLQWSSLKASDTAMYFCARQRTFYYDSSDYFDYWGQGTLVTVSS
VL: DIQMTQSPSSVSASVGDRVTITCRASQGISSWLAWYQQKPGKAPKLLIYAASSLQNGVPSRFSGSGSGTDFTLTISSLQPEDFATYFCQQAASFPRTFGQGTKLEIK
With B6 the “binding signal fold over 6E7 parental” value (human TREM2 [1]) was 0.79 fold and the “binding signal fold over 6E7 parental” value (human TREM2 [2]) was 0.42 fold.

B7: V18 (Fab, V domains shown)
VH: EVQLVQSGAEVKKPGESLKISCKGSGYSFTSYHIAWVRQMPGKGLEWMGIIYPGDSDTRYSPSFQGQVTISADKSISTAYLQWSSLKASDTAMYFCARQRTFYYDSSDYFDYWGQGTLVTVSS
VL: DIQMTQSPSSVSASVGDRVTITCRASQGISSWLAWYQQKPGKAPKLLIYAASSLQNGVPSRFSGSGSGTDFTLTISSLQPEDFATYFCQQADSFPRTFGQGTKLEIK
In the case of B7, the “binding signal fold over 6E7 parental” value (human TREM2 [1]) is reported as 0.17 fold and the “binding signal fold over 6E7 parental” value (human TREM2 [2]) is reported as 0.42 fold.

B8: V19 (Fab, V domains shown)
VH: EVQLVQSGAEVKKPGESLKISCKGSGYSFTSSWIAWVRQMPGKGLEWMGIIYPGDSDTRYSPSFQGQVTISADKSISTAYLQWSSLKASDTAMYFCARQRTFYYDSSDYFDYWGQGTLVTVSS
VL: DIQMTQSPSSVSASVGDRVTITCRASQGISSWLAWYQQKPGKAPKLLIYAASSLQNGVPSRFSGSGSGTDFTLTISSLQPEDFATYFCQQADSFPRTFGQGTKLEIK
With B8 the “binding signal fold over 6E7 parental” value (human TREM2 [1]) was 0.59 fold and the “binding signal fold over 6E7 parental” value (human TREM2 [2]) was 0.48 fold.

B9: V20 (Fab, V domains shown)
VH: EVQLVQSGAEVKKPGESLKISCKGSGYSFTSYWIAWVRQMPGKGLEWMGRIYPGDSDTRYSPSFQGQVTISADKSISTAYLQWSSLKASDTAMYFCARQRTFYYDSSDYFDYWGQGTLVTVSS
VL: DIQMTQSPSSVSASVGDRVTITCRASQGISSWLAWYQQKPGKAPKLLIYAASSLQNGVPSRFSGSGSGTDFTLTISSLQPEDFATYFCQQADSFPRTFGQGTKLEIK
B9 was tested, and the “binding signal fold over 6E7 parental” value (human TREM2 [1]) was 0.18 fold and the “binding signal fold over 6E7 parental” value (human TREM2 [2]) was 0.52 fold.

B10: V21 (Fab, V domains shown)
VH: EVQLVQSGAEVKKPGESLKISCKGSGYSFTSYWIAWVRQMPGKGLEWMGIIYPGDSDTRYSPSFQGQVTISADKSISTAYLQWSSLKASDTAMYFCARQRTFYYDSSDFFDYWGQGTLVTVSS
VL: DIQMTQSPSSVSASVGDRVTITCRASQGISSWLAWYQQKPGKAPKLLIYAASSLQNGVPSRFSGSGSGTDFTLTISSLQPEDFATYFCQQADSFPRTFGQGTKLEIK
With B10 the “binding signal fold over 6E7 parental” value (human TREM2 [1]) was 0.76 fold and the “binding signal fold over 6E7 parental” value (human TREM2 [2]) was 0.68 fold.

B11: V22 (Fab, V domains shown)
VH: EVQLVQSGAEVKKPGESLKISCKGSGYSFTSYWIAWVRQMPGKGLEWMGIIYPGDSDTRYSPSFQGQVTISADKSISTAYLQWSSLKASDTAMYFCARQRTFYYDSSDYFDYWGQGTLVTVSS
VL: DIQMTQSPSSVSASVGDRVTITCRASQGISSWLAWYQQKPGKAPKLLIYRASSLQNGVPSRFSGSGSGTDFTLTISSLQPEDFATYFCQQADSFPRTFGQGTKLEIK
B11 was tested, and the “binding signal fold over 6E7 parental” value (human TREM2 [1]) was 0.3 fold and the “binding signal fold over 6E7 parental” value (human TREM2 [2]) was 0.71 fold.

B12: V23 (Fab, V domains shown)
VH: EVQLVQSGAEVKKPGESLKISCKGSGYSFTSYWIAWVRQMPGKGLEWMGIIYPGDSDTRYSPSFQGQVTISADKSISTAYLQWSSLKASDTAMYFCARQRTFYYDSSDYFDYWGQGTLVTVSS
VL: DIQMTQSPSSVSASVGDRVTITCRASQGISSWLAWYQQKPGKAPKLLIYAASSLQNGVPSRFSGSGSGTDFTLTISSLQPEDFATYFCQQADSFPLTFGQGTKLEIK
With B12 the “binding signal fold over 6E7 parental” value (human TREM2 [1]) was 0.4 fold and the “binding signal fold over 6E7 parental” value (human TREM2 [2]) was 0.4 fold.

B13: V30 (Fab, V domains shown)
VH: EVQLVQSGAEVKKPGESLKISCKGSGSSFTSYWIAWVRQMPGKGLEWMGIIYPGDSDTRYSPSFQGQVTISADKSISTAYLQWSSLKASDTAMYFCARQRTFYYDSSDYFDYWGQGTLVTVSS
VL: DIQMTQSPSSVSASVGDRVTITCRASQGISSWLAWYQQKPGKAPKLLIYAASSLQNGVPSRFSGSGSGTDFTLTISSLQPEDFATYFCQQADSFPRTFGQGTKLEIK
With B13 the “binding signal fold over 6E7 parental” value (human TREM2 [1]) was 0.79 fold and the “binding signal fold over 6E7 parental” value (human TREM2 [2]) was 0.72 fold.

B14: V31 (Fab, V domains shown)
VH: EVQLVQSGAEVKKPGESLKISCKGSGYSFTSYWIAWVRQMPGKGLEWMGIIYPGDSETRYSPSFQGQVTISADKSISTAYLQWSSLKASDTAMYFCARQRTFYYDSSDYFDYWGQGTLVTVSS
VL: DIQMTQSPSSVSASVGDRVTITCRASQGISSWLAWYQQKPGKAPKLLIYAASSLQNGVPSRFSGSGSGTDFTLTISSLQPEDFATYFCQQADSFPRTFGQGTKLEIK
B14 was tested, and the “binding signal fold over 6E7 parental” value (human TREM2 [1]) was 0.61 fold and the “binding signal fold over 6E7 parental” value (human TREM2 [2]) was 0.73 fold.

B15: V32 (Fab, V domains shown)
VH: EVQLVQSGAEVKKPGESLKISCKGSGYSFTSYWIAWVRQMPGKGLEWMGIIYPGDSDTRYSNSFQGQVTISADKSISTAYLQWSSLKASDTAMYFCARQRTFYYDSSDYFDYWGQGTLVTVSS
VL: DIQMTQSPSSVSASVGDRVTITCRASQGISSWLAWYQQKPGKAPKLLIYAASSLQNGVPSRFSGSGSGTDFTLTISSLQPEDFATYFCQQADSFPRTFGQGTKLEIK
In the case of B15, the “binding signal fold over 6E7 parental” value (human TREM2 [1]) is reported as 0.82 fold and the “binding signal fold over 6E7 parental” value (human TREM2 [2]) is reported as 0.89 fold.

B16: V33 (Fab, V domains shown)
VH: EVQLVQSGAEVKKPGESLKISCKGSGYSFTSYWIAWVRQMPGKGLEWMGIIYPGDSDTRYSPSFQGQVTISADKSISTAYLQWSSLKASDTAMYFCARQRTFYGDSSDYFDYWGQGTLVTVSS
VL: DIQMTQSPSSVSASVGDRVTITCRASQGISSWLAWYQQKPGKAPKLLIYAASSLQNGVPSRFSGSGSGTDFTLTISSLQPEDFATYFCQQADSFPRTFGQGTKLEIK
With B16 the “binding signal fold over 6E7 parental” value (human TREM2 [1]) was 0.23 fold and the “binding signal fold over 6E7 parental” value (human TREM2 [2]) was 0.34 fold.

B17: V34 (Fab, V domains shown)
VH: EVQLVQSGAEVKKPGESLKISCKGSGYSFTSYWIAWVRQMPGKGLEWMGIIYPGDSDTRYSPSFQGQVTISADKSISTAYLQWSSLKASDTAMYFCARQRTFYYDSSDYFDYWGQGTLVTVSS
VL: DIQMTQSPSSVSASVGDRVTITCRASQGISSWLAWYQQKPGKAPKLLIYAASSLQDGVPSRFSGSGSGTDFTLTISSLQPEDFATYFCQQADSFPRTFGQGTKLEIK
With B17 the “binding signal fold over 6E7 parental” value (human TREM2 [1]) was 0.34 fold and the “binding signal fold over 6E7 parental” value (human TREM2 [2]) was 1.02 fold.

B18: V35 (Fab, V domains shown)
VH: EVQLVQSGAEVKKPGESLKISCKGSGYSFTSYWIAWVRQMPGKGLEWMGIIYPGDSDTRYSPSFQGQVTISADKSISTAYLQWSSLKASDTAMYFCARQRTFYYDSSDYFDYWGQGTLVTVSS
VL: DIQMTQSPSSVSASVGDRVTITCRASQGISSWLAWYQQKPGKAPKLLIYAASSLQNGVPSRFSGSGSGTDFTLTISSLQPEDFATYFCQQAYSFPRTFGQGTKLEIK
With B18 the “binding signal fold over 6E7 parental” value (human TREM2 [1]) was 0.21 fold and the “binding signal fold over 6E7 parental” value (human TREM2 [2]) was 0.29 fold.

B19: V42 (Fab, V domains shown)
VH: EVQLVQSGAEVKKPGESLKISCKGSGYSFTSAWIAWVRQMPGKGLEWMGIIYPGDSDTRYSPSFQGQVTISADKSISTAYLQWSSLKASDTAMYFCARQRTFYYDSSDYFDYWGQGTLVTVSS
VL: DIQMTQSPSSVSASVGDRVTITCRASQGISSWLAWYQQKPGKAPKLLIYAASSLQNGVPSRFSGSGSGTDFTLTISSLQPEDFATYFCQQADSFPRTFGQGTKLEIK
With B19 the “binding signal fold over 6E7 parental” value (human TREM2 [1]) was 0.45 fold and the “binding signal fold over 6E7 parental” value (human TREM2 [2]) was 0.41 fold.
